Data set [1] addresses ALYREF (Homo sapiens, UniProt Q86V81 Q86V81:1-257). Description: UV crosslinking.
Data set [2] has as its target MAGOH (UniProt P61326 P61326:1-146). Description: UV crosslinking; negative control protein. The following applies: tags: hexa-histidine, E. coli BL21(DE3)-RP; label: 5'-32P. An excerpt: (§1) (A,B) Protein:RNA UV crosslinking assays using purified recombinant proteins and 32P-end-radiolabeled G4C2×5 (A) and C4G2×5 (B) repeat RNA probes. Proteins are visualised on SDS-PAGE stained with Coomassie blue (left panels) and covalently linked RNA:protein complexes by autoradiography on Phospholmages (Right panels). UV exposure is indicated by +. […] Nuclei are stained in blue by DAPI. Scale bar: 3 μm;
(§2) We performed in vitro UV-crosslinking assays using purified recombinant proteins and synthetic G4C2×5 and C4G2×5 RNA probes to investigate direct protein:RNA interactions. […] Purified proteins were incubated with 5′-end 32P-radiolabelled G4C2×5 (FIG. 20a) or C4G2×5 (FIG. 20b) RNA probes prior to irradiation with UV where indicated (+) and resolved by SDS-PAGE.

For data set [3], the target named is T1, SRSF1-m4 (11-196 quadruple Arg to Ala mutant) (Homo sapiens, UniProt Q07955 SEQ:2-187).
T1 chain: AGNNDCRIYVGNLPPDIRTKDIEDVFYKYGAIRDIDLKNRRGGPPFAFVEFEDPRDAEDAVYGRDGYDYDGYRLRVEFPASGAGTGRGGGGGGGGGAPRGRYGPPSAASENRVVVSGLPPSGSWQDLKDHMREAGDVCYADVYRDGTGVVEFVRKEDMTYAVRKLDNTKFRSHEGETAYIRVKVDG
The data set is described as follows: UV crosslinking. The following applies: tags: hexa-histidine, E. coli BL21(DE3)-RP; label: 5'-32P. An excerpt: (§3) Histone H3 is used to check for potential nuclear contamination. (g) Cytoplasmic and total G4C2-repeat sense transcript levels were normalized to Tub84b levels in G4C2×36+Ctrl-RNAi or G4C2×36+SRSF1⁷⁶-RNAi Drosophila in triplicate experiments prior to plotting as a ratio to account for potential changes in mRNA transcription/stability (mean±SEM; paired t-test; N (qRT-PCR reactions)=3).
(§4) N2A cells were transfected with FLAG control, FLAG-tagged SRSF1 or FLAG-tagged SRSF1-m4 and various lengths of sense or antisense repeat transcript constructs prior to fixing of ribonucleoprotein complexes. Cell extracts were then subjected to anti-FLAG immunoprecipitation under the same conditions used in the co-immunoprecipitation of NXF1 (FIG. 6g) prior to the qRT-PCR analysis of SRSF1-crosslinked RNA molecules.

The target in data set [4] is SRSF1 (11-196) (Homo sapiens, UniProt Q07955 SEQ:11-196). Description: UV crosslinking; no signal without UV. The following applies: tags: hexa-histidine, E. coli BL21(DE3)-RP; label: 5'-32P.
Text: as §1, §2

The target of data set [5] is T1, SRSF1-m4 (11-196 quadruple Arg to Ala …). The data set is described as follows: UV crosslinking; mutant position printed R93,94,117,118A in text, R90,93,117,118A in FIG. 13. The conditions noted are these: tags: hexa-histidine, E. coli BL21(DE3)-RP; label: 5'-32P.
Text: as §3, §4

MAGOH, sequence (P61326 whole entry, one chain of several): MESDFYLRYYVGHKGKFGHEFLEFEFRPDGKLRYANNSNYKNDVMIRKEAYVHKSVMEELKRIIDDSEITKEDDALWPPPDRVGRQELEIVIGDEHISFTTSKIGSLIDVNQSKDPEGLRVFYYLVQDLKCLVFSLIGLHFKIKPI

B1: C4G2x5 RNA (ssRNA)
RNA: CCCCGGCCCCGGCCCCGGCCCCGGCCCCGG
With B1, the binding result is given as “binds” in data set [1], “no binding” in data set [2], “binds” in data set [3] and “binds” in data set [4].

B2: G4C2x5 RNA (ssRNA)
RNA: GGGGCCGGGGCCGGGGCCGGGGCCGGGGCC
As for B2, the binding result in data set [1] is given as “binds”; in data set [2], “no binding”; in data set [5] it was “binds”; in data set [4], “binds”.

For the origin of these results see US20190194660, “INHIBITORS OF SRSF1 TO TREAT NEURODEGENERATIVE DISORDERS” (University of Sheffield, published 2019).
